# According to the DeepSol protein solubility set:
# Assay: soluble on expression in E. coli; label from the status in PepcDB or PDB records
row,Sequence,soluble on expression in E. coli
1,MSLTETTDLYRMSSSLRVVALAETLQRARAFASRLGIIRVTDTTRLDCIGIPVFASIRPTALPGSLCVNAGKGLRPEEARVGAYMEAIEFAMAEYGRSAVDYVMATPRDVLDGRSRPEAILDFCPVFGAQITLDDPMPCVEAEELLSSTRCLVPAELVYVPAPAVEGVQRHFGSSSNGLCSGNSVWEASVHGLAEVIERDIQSFCFLHDTSVLVDIASLPPQPAALARQIGEAGFTLRLRYVENIFELPYFAAYVMEPDPVDAVYICGGFGCHPFKEIAAVRAICEAVQGRLSFIHGGRDDLIERHRLLAQMNGEQELAFSRKLAAKVSRPEGMIGFEAIGDRSGEVCDLSSAWEVLVAAIRKVGIAHVCRVVFTQPHDPVQVLKLIVPRLEMFDRSTRRIGPRLRDHARFHEGHHHHHH,not soluble
2,MSLTITENPYRLSLDIEGIGFQTADAIATSLGVAKNSLMRAEAGISHVLGELSQNGHCAVPEETLIDEASRLLQIDHPLVVEAVKNEKLTRRIVGETIDGVPCIFLESLHRAETGVASGLHRLMRGPLPWNALDPHDALPWIEETTALELSPSQRSAVTLVLASKVSIITGGPGVGKTTILKAILSVLQREKVSVALCAPTGRAAKRLTESTGIEAKTIHRLLEFDPQAFDFKRGRGNPLDASFVVVDETSMVDVVLMQKLVAAIPDHAAVVFVGDVDQLPSVGPGAVLADMISSEAIPTVRLTEIFRQAAESMIVVNAHRINQGDMPLTEGHHHHHH,soluble
3,MSLTKLKKVMISVIAATLLLLAGCGSSAVVKTDAGSVTQDELYEAMKTTYGNEVVQQLTFKKILEDKYTVTEKEVNAEYKKYEEQYGDSFESTLSSNNLTKTSFKENLEYNLLVQKATEANMNVSESKLKTYYKTWEPDITVRHILVDDEATAKEIQTKLKNGEKFTDLAKEYSTDTATSTNGGLLDPFGPGEMDETFEKAAYALENKDDVSGIVKSTYGYHLIQLVKKTEKGTYAKEKANVKAAYIESQLTTENMTAALKKELKAANIDIKDSDLKDAFADYTEGHHHHHH,soluble
4,MSLTKYIFVTGGVVSSIGKGIVAASLGRLLKNRGLKVTIQKFDPYINIDPGTMSPYQHGEVYVTDDGAETDLDLGHYERFIDINLNKYSNVTTGKIYSEVLRKERKGEYLGATVQVIPHITDALKEKIKRAATTTDSDVIITEVGGTVGDIESLPFLEALRQMKADVGADNVMYIHTTLLPYLKAAGEMKTKPTQHSVKELRGLGIQPNMLVIRTEQPAGQGIKNKLAQFCDVAPEAVIESLDVDHLYQIPLNLQAQNMDQIVCDHLKLDVPVADMTEWSAMVDKVMNLKKKTKIALVGKYVELPDAYLSVVEALKHSGYVNDTAIDLNWINANEVTPETVTDLLGDADGIIVPGGFGHRGTEGKIEAIRYARENDVPMLGICLGMQLTCVEYARHVLNLEGANSAELDPDTKYPVIDIMRDQIDIEDMGGTLRLGLYPCKLKSGSKTASAYSNQEVVQRRHRHRYEFNNAFRQQFEEAGFVFSGVSPDNRLVEVVELSDKKFFVAAQYHPELQSRPNRPEELYTAFITAAVENSQAHEGHHHHHH,soluble
5,MSLTLAFAYVRASTIEEVRQGSNERQKEAIRQYTYQKGYELEIFEDKAKSGRNTLRPEFERMLKSLDRRPQIVIVSKIDRFARSLSDLLKTLEYLDQNGVGFVSVNDPGIDTTTPNGRLLLQILGAFAEFERNMINSRTKAGREQAQSKGVKKGIITITTDPNSSSVDKLAAALEHHHHHH,soluble
6,MSLTLKLLAEVAGEKVSRFDNKGDIWYDLISAVHKSIRGSNPDAALYWSARMIAAGCDPLYIARRLLAIASEDVGNADPRAMQVALSAWDCFTRVGPAEGERAIAQAIVYLACAPKSNAVYTAWKQALSDAHNLPEFEVPFHLRNAPTGLMKDLGYGEGYRYAHDEPGAYAAGEQYLPAEIDDRKYYQPTNRGLESKIAEKLDYLANLDANSPQKRYEEGHHHHHH,not soluble
7,MSLTLVTELTPPAASAPPFSDHPDHVIAAVTATIVDLPLRRPHFHATGTHATQSLVMVELVTSGGAVGWGEGGTPGGTAFWGGECVETIKLMIDHYLAPAVIGISVFDQERILAAMDRIAANNHFAKAAIDIAVHDAAARLIGISVSQMFGGTARSTVPVLWALAAAAYEADVADAIEQIEAGRHSVFKIKIGKGDAASETRRALETATTIHDAHPDARFVVDLNQAWDESTAMRWLAAFQERDFLFVEQPVPAWNVEGMIRLASRFEIPIMADEGLWDFHDAYELIRRGATDIYAVKIAKGGGLRRAFKAAAVAEAAGVPLYGGMALESSVGTAAGLQLFSALPNLPFGCELIGPRLLAEDLTVQPIAYRDREVVVPSGVGMGVEIDRDRVRSFTRRNKEGHHHHHH,soluble
8,MSLTNHQVSYFSLQDVKLLSSPFLQAQQTDLHYILALDPDRLSAPFLREAGLTPKAPSYTNWENTGLDGHIGGHYLSALSMMYAATGDTAIYHRLNYMLNELHRAQQAVGTGFIGGTPGSLQLWKEIKAGDIRAGGFSLNGKWVPLYNIHKTYAGLRDAYLYAHSDLARQMLIDLTDWMIDITSGLSDNQMQDMLRSEHGGLNETFADVAEITGDKKYLKLARRFSHKVILDPLIKNEDRLNGMHANTQIPKVIGYKRVAEVSKNDKDWNHAAEWDHAARFFWNTVVNHRSVCIGGNSVREHFHPSDNFTSMLNDVQGPETCNTYNMLRLTKMLYQNSGDVDNSNKPDPRYVDYYERALYNHILSSQEPDKGGFVYFTPMRPGHYRVYSQPETSMWCCVGSGLENHTKYGEFIYAHQQDTLYVNLFIPSQLNWKEQGVTLTQETLFPDDEKVTLRIDKAAKKNLTLMIRIPEWAGNSKGYEITINGKKHLSDIQTGASTYLPIRRKWKKGDMITFHLPMKVSLEQIPDKKDYYAFLYGPIVLATSTGTENLDGEGHHHHHH,soluble
9,MSLTNITQCKNRRCGGELGDFTGYIESPNYPGNYPANTECTWTINPPPKRRILIVVPEIFLPIEDDCGDYLVMRKTSSSNSVTTYETCQTYERPIAFTSRSKKLWIQFKSNEGNSARGFQVPYVTYDEDYQELIEDIVRDGRLYASENHQEILKDKKLIKALFDVLAHPQNYFKYTAQESREMFPRSFIRLLRSKVSRFLRPYKEGHHHHHH,not soluble
10,MSLTNKMIYDQASGLRRLTQPSVTKVISVTGGKGGVGKSNVTLGMAICMAKQGKKVMVLDADLGLANVDVMLGIRPKRNLGHVLAGECELKDAIVEGPHGIRIIPATSGTQSMTELSHAQHVGLIRAFGTLEDEMDILLIDTAAGISDMVVSFSRAAQDVVVVVCDEPTSITDAYALIKLLSKEHQVQRFKIVANMVRSYREGRELFAKLTLVTERFLNVSLELVACIPLDDNVRQAVKRQKIVVDAYPRSPAALAISSLANKALTWPIPRTPSGHLEFFVERLLNRSEGHHHHHH,soluble
11,MSLTNNLTTKASLVSSAFSPVLVVGKKKELRQPVKIKAVNWHHKKRPVELQVGNFPPERYVLSPGINNIETSIPEVTAPCELPIILKEQGKTVSKINEKATPVKKWTVYLVQHTHTDIGYTKPQTEILSEHLRYIDYAIEYCEQTKDYTNDAKFRWTCESAWAVDEYLKNRPEEQVNKLKKYIAEGQIEVASMYFNMSEIVDENSFKTFLQPVKEFRKHGIPSALAMQNDVNGIAWCLADYLPDLGIKYLWMGEHHYKSQVPFNMPTVFQWESPSGKPILTYRADHYNTGNFWGIEQGDIQKTEPKLLHYLSELERKHYPFDAVGVQYSGYFTDNSPPSIIECKLIREWNEKYAYPKLRSATASEFMDYVTERYGDKIPAYRAEGHHHHHH,soluble
12,MSLTPMFKTPVVMTIAGSDSGGGAGIAADIKTFAAFGVHGTCAITSVTAQNTTGVLETFDLAPEAVASQIEAVCTDMDVKWAKTGMLASSEIIKEVAKQVKKHNLSLVLDPVMAAEAGGDLLKKEALSVLIKELLPLCKVTTPNASEAGALAGVTVKTHEDAKLAARKIADLGVESVIVTGGHIDATDLLYEPVSGTFTRIPGTFVKGGTHGSGCTYSASMAACLARGDSTETAARKAKTFVEQAILRSVPVGKGVGPVNPLANTLEEKERYLALQDVKEAVSILTYSPDFAKLIPEVGCNIGMAIPCARTYNEIAAVEGRIIRFREKAIPVGYVNFGASQHVARVILAALRENPEMRAAMNVKYSEEILEACREINPGISSFDRAEDPGDASTMEWGTSEAIRKYGGMPEVIYDKGAIGKEPMVRLLGKSASEVAKLAVELARRVKEGHHHHHH,soluble
13,MSLTPRDHTLILIDYQSQMAFATHSIDIPTLRNNAGLVASAAAGFGVSAILTTVAEKSFSGPMFDEVTAPFPDLRMLDRTSMNTWEDAAVIDRVNQIGKGRIVLAGLWTSVCIVGPALSALDQGFEVYVIADACGDISAEAHERAMQRMVQAGARPITSLQYLLELQRDWARTDTYELTTGIAAKLGGGYGLGIRYAKTMFGGHEGHHHHHH,soluble
14,MSLTQFASPVLHSLLDTDAYKLHMQQAVFHHYYDVHVAAEFRCRGDDLLGIYADAIREQVQAMQHLRLQDDEYQWLSALPFFKADYLNWLREFRFNPEQVTVSNDNGKLDIRLSGPWREVILWEVPLLAVISEMVHRYRSPQADVAQALDTLESKLVDFSALTAGLDMSRFHLMDFGTRRRFSREVQETIVKRLQQESWFVGTSNYDLARRLSLTPMGTQAHEWFQAHQQISPDLANSQRAALAAWLEEYPDQLGIALTDCITMDAFLRDFGVEFASRYQGLRHDSGDPVEWGEKAIAHYEKLEIDPQSKTLVFSDNLDLRKAVELYRHFSSRVQLSFGIGTRLTCDIPQVKPLNIVIKLVECNGKPVAKLSDSPGKTICHDKAFVRALRKAFDLPHIKKASEGHHHHHH,soluble
15,MSLTQFKKFAEHISSCFSPSAIQEFSRKSKIVKRKRMFTIDHLLWLCVWQEKNMGDSSLIDMCASLWQQFGIKISPEGLNQRFNEKSTAFLKLLFHSILEKQTPDLAAIQHAYSTHFNRIRILDSTSFQLPNTFSDKYPGNGCLMQLKSAEGHHHHHH,not soluble
16,MSLTQIENSQYRKHKQKQQHLQHSLTGESKTAIVVFSRSGNTATLSEHIAHKTNGHVYEIFAKSYALGIPGWINALKDARSNVAEIVPQHIDLSSYDTVYLGSPIWLYSPAPPFWQFVKDNDLTNKRVILFNSFNSKFEQHFIDEFAALARAKGATSFEHQYVKRGRMGDQLSTDEMLAAFDHLNPNEGHHHHHH,soluble
17,MSLTSHLLKAEIHCHLEGAAPPALVVKQAEKYGIDTSGFLRDGQYVWSDFAEFIQCYDAVAQVFKSDEDYAVLTETYLTELAEANTIYSELIISPDHGDRIGLGADAYLAGVAEGIRIAKEKTGIETRIIVTGERHFGPERVIAAAEYAARIRHPLVTGFNMAGEERMGRVADYARAFDIARDAGLGLTIHAGEVCGPESVADALDLVKPSRIGHGVRAIEDAALISRLVETGTVLEVCPGSNIALSVYPDFASHPLKALSDAGVRVCISSDDPPFFFTSLAREYALAADAFGFNDAEINRMTRTALECAFVDEATRERLLARLGDAEGHHHHHH,soluble
18,MSLTSQPREQFLLISALGPNPMELTTLLCRACVESRCAVVSSRLTRHGEFSALVLQISGSWDALARLEGSLPALTKRGDITLSMTRSNAHVTRAQALPYVAYVSAVYRPDILNELCQFFIDHNIELENLTCDTYQAPHTNTTMLNATITVTLPAGTQISWLRDQFLDFADALNLDALIEPWREGGSHHHHHH,soluble
19,MSLTTNPVKHTDEHIGALYFSDLPGISNLTCTANYIGGKFWTTAHHCVEGRSRFVGFIEQSDGQYAGIEHVYTKSSDYDIALIKVGSGIDAEQFSLTRSRPAVGKMLEVVGFAVVNPFSSRATMEVTNSNTVANYPMSNLYYKDVFSAKPAGSFPYVISGGDSGAAVWSGETMYGIASGSNGSTKNLAANVGPHVSWIEQTMQNNSNSSPYEILQAFRGGLATSYPKYNQIRDLVDSSEGHHHHHH,not soluble
